Reference: patent publication US20250376511A1 (Sanofi, published 2025)
Changes are numbered by the printed parent chain.

T1: Human active C1s (Complement Technology) (human, UniProt P09871 16-688)
T1 sequence: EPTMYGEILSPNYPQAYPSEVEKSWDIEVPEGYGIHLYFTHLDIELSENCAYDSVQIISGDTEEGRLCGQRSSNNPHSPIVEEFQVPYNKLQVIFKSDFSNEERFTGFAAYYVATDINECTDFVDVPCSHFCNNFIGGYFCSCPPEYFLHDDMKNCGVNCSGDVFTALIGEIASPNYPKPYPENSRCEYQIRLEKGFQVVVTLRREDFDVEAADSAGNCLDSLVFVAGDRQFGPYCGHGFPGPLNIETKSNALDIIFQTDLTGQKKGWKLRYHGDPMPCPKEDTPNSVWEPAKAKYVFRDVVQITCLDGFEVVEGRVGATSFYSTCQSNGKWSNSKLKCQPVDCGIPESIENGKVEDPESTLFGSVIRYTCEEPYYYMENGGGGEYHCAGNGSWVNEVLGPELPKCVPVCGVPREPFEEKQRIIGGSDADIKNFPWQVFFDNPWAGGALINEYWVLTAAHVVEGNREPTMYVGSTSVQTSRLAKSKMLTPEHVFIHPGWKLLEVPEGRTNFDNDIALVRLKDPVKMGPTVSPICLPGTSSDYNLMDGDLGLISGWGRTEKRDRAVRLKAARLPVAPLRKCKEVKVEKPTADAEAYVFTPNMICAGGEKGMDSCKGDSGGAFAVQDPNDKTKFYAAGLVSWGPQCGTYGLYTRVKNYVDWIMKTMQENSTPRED

T2: cynomolgus aC1s (cynomolgus, UniProt A0A2K5VQX9 16-685)
T2 construct: also called Cyno aC1s; caC1s
T2 sequence: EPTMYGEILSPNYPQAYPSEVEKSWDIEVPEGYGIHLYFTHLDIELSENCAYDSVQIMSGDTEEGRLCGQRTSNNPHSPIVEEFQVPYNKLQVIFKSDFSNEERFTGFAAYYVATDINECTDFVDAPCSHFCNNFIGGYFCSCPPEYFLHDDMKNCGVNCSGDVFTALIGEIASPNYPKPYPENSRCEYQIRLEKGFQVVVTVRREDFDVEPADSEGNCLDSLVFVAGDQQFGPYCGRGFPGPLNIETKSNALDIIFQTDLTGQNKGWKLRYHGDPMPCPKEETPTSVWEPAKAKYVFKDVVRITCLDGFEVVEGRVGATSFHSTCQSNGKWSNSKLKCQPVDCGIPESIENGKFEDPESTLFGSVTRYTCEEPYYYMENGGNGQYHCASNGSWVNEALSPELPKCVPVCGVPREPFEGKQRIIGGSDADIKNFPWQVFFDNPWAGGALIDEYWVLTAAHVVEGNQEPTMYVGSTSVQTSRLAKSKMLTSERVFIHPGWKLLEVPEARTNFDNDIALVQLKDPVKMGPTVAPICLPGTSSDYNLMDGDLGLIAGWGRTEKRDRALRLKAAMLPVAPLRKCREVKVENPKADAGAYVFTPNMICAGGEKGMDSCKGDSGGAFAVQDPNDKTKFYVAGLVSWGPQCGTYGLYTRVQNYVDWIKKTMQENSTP

B1: bispecific anti-aC1s (L4)/anti-TfR (531v25.v6) IgG4 antibody (bispecific antibody)
heavy 1: QVQLVQSGAEVKKPGASVKLSCTASGFNIKDDYIHWVKEAPGQGLEWIGRIDPADGHTKYAPKFQVKVTITADTSTSTAYLELSSLRSEDTAVYYCARYGYGREVFDYWGQGTTVTVSSASTKGPSVFPLAPCSRSTSESTAALGCLVKDYFPEPVTVSWNSGALTSGVHTFPAVLQSSGLYSLSSVVEVPSSSLGTKTYTCNVDHKPSNTKVDERVESDYGPPCPPCPAPEFEGGPSVFLFPPKPKDTLMISRTPEVTCVVVDVSQEDPEVQFNWYVDGVEVHNAKTKPREEQFNSTYRVVSVLTVLHQDWLNGKEYKCKVSNKGLPSSIEKTISKAKGQPREPQVCTLPPSQEEMTKNQVSLSCAVKGFYPSDIAVEWESNGQPENNYKTTPPVLDSDGSFFLVSRLTVDKSRWQEGNVFSCSVLHEALHSRFTQKSLSLSLG
light 1: DIVMTQSPDSLAVSLGERATISCKSSQSVDYEGDSYLNWYQKKPGQPPKLLIYDASNLESGVPDRFSGSGSGTDFTLTISSLQAEDVAVYYCQQSNEDPWTFGQGTKVEIKRTVAAPAVFIFPPSKKQLKSGTASVVCLLKNFYPREAKVQWKVDNALQSGNSQESVTEQDSKDSTYSLSSTLTLSKADYEKHKVYACEVTHQGLSSPVTKSFNRGEC
heavy 2: QVQLVQSGAEVKKPGASVKVSCKASGYTFTRYYLNWVRKAPGQGLEWIGMIDPSVSETHYAQKFQGRATLTVDKSTSTAYMELSSLRSEDTAVYYCSQIRLPYYYAMDSWGQGTTVTVSSASTKGPSVFPLAPCSRSTSESTAALGCLVKDYFPEPVTVSWNSGALTSGVHTFPAVLQSSGLYSLSSVVTVPSSSLGTKTYTCNVDHKPSNTKVDKRVESKYGPPCPPCPAPEFEGGPSVFLFPPKPKDTLMISRTPEVTCVVVDVSQEDPEVQFNWYVDGVEVHNAKTKPREEQFNSTYRVVSVLTVLHQDWLNGKEYKCKVSNKGLPSSIEKTISKAKGQPREPQVYTLPPCQEEMTKNQVSLWCLVKGFYPSDIAVEWESNGQPENNYKTTPPVLDSDGSFFLYSRLTVDKSRWQEGNVFSCSVLHEALHSHYTQKSLSLSLG
light 2: DIQMTQSPSSLSASVGDRVTITCRASQDIESFLNWYQEKPGKAPKLLIYYTSRLQSGVPSRFSGSGSGTDYTLTISSLQPEDFATYYCQQGNTLPRTFGGGTKVEIKRTVAAPSVFIFPPSDEQLKSGTASVVCLLNNFYPREAKVQWKVDNALQSGNSQESVTEQDSKDSTYSLSSTLTLSKADYEKHKVYACEVTHQGLSSPVTKSFNRGEC
notes: Purified from CHO cells; monovalent for aC1s
B2: aC1s_088 × 531v25 IgG4-PE/dK (bispecific antibody, V domains shown)
VH 1: QVQLVQSGAEVKKPGASVKLSCTASGFNIKDDYIHWVKEAPGQGLEWIGRIDPADGHTKYAPKFQVKVTITADTSTSTAYLELSSLRSEDTAVYYCARYGYGREVFDYWGQGTTVTVSS
VL 1: DIVLTQSPDSLAVSLGERATISCKASQSVDYDGDSYMNWYQKKPGQPPKILIYDASNLESGIPARFSGSGSGTDFTLTISSLEPEDFAIYYCQQSNEDPWTFGGGTKVEIK
VH 2: QVQLVQSGAEVKKPGASVKVSCKASGYTFTRYYLNWVRKAPGQGLEWIGMIDPSVSETHYAQKFQGRATLTVDKSTSTAYMELSSLRSEDTAVYYCSQIRLPYYYAMDSWGQGTTVTVSS
VL 2: DIQMTQSPSSLSASVGDRVTITCRASQDISSFLNWYQEKPGKAPKLLIYYTSRLQSGVPSRFSGSGSGTDYTLTISSLQPEDFATYYCQQGNTLPRTFGGGTKVEIK
notes: IgG4-PE Fc, dK, with charge pairing mutations; The starred variable domains are used, as for m5; also called aC1s_088-CM × 531v25 IgG4
B3: aC1s_088 × 531v25.v6 IgG4-PE/dK (bispecific antibody, V domains shown)
VH 1: B2 VH 1
VL 1: B2 VL 1
VH 2: B2 VH 2
VL 2: B2 VL 2 with S30E
notes: IgG4-PE Fc, dK, with charge pairing mutations; The starred variable domains are used, as for m5; also called aC1s_088-CM × 531v25.v6 IgG4
B4: aC1s_088 × 531v23 IgG1-NNAS/dK (bispecific antibody, V domains shown)
VH 1: B2 VH 1
VL 1: B2 VL 1
VH 2: B2 VH 2
VL 2: B2 VL 2 with Q55H
notes: IgG1-NNAS Fc, dK, with charge pairing mutations; The starred variable domains are used, as for m5; also called v23 variant
B5: aC1s_088 × 531v23 IgG4-PE/dK (bispecific antibody, V domains shown)
VH 1: B2 VH 1
VL 1: B2 VL 1
VH 2: B2 VH 2
VL 2: B2 VL 2 with Q55H
notes: IgG4-PE Fc, dK, with charge pairing mutations; The charge-mutated (starred) variable domains are used for both arms; also called aC1s_088-CM × 531v23 IgG4

Assays:
[1] = target: T1, Human active C1s (Complement Technology); assay: cell-based or functional assay
[2] = target: T1, Human active C1s (Complement Technology); assay: cell-based or functional assay; remark: listed apart in the source
[3] = target: T3, His-tagged recombinant human TfR (produced in-house) (human, UniProt P02786 89-760); assay: affinity of bispecific purified from CHO cells (SPR; details not restated)
T3 construct: also called hTfR; transferrin receptor 1
T3 sequence (P02786 89-760 limits assumed): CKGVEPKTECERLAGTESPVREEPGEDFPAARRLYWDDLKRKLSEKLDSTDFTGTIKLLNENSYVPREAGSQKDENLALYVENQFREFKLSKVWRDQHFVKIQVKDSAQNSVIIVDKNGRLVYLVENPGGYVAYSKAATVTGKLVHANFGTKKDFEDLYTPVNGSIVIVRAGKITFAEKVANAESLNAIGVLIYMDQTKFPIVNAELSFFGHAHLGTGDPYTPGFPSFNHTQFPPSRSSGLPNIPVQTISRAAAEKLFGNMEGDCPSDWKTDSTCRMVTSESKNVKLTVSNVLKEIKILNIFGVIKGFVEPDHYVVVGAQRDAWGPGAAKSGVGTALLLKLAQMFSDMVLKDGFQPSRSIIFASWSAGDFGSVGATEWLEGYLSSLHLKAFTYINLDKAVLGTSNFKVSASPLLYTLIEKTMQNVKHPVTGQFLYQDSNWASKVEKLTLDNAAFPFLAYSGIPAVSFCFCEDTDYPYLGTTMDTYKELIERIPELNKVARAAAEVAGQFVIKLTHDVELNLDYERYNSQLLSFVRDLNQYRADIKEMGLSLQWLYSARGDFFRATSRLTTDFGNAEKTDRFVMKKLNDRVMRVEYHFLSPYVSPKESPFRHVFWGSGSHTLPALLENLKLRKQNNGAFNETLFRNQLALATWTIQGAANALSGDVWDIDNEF

[4] = target: T1, Human active C1s (Complement Technology); assay: as above
[5] = target: T4, cynomolgus TfR (cynomolgus, UniProt H9EXL1 89-760 (rhesus entry)); assay: as above
T4 construct: also called Cyno TfR; cTfR
T4 sequence (chain, as listed by the source): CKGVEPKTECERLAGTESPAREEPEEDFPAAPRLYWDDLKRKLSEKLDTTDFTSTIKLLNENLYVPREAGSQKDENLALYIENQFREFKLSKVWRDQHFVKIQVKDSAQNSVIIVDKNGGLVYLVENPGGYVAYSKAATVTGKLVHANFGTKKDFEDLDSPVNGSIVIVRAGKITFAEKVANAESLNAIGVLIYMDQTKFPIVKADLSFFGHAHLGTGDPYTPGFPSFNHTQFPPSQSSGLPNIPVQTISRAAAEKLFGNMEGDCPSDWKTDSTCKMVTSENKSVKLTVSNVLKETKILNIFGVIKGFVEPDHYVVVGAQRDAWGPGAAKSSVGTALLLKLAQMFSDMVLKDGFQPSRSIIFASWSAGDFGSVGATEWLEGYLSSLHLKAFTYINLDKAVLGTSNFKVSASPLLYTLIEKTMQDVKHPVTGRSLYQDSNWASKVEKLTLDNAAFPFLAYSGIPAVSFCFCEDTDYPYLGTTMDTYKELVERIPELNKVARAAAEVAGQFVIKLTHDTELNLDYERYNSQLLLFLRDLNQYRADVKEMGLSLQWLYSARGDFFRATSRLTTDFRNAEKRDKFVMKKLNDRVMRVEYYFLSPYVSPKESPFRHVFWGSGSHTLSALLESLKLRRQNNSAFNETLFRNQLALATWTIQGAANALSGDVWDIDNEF

[6] = target: T2, cynomolgus aC1s; assay: as above
[7] = target: T1, Human active C1s (Complement Technology); assay: cell-based or functional assay; remark: listed apart in the source
[8] = target: T1, Human active C1s (Complement Technology); assay: cell-based or functional assay; remark: listed apart in the source
[9] = target: T3, His-tagged recombinant human TfR …; assay: hTfR affinity, SPR (method not restated for Table 1; same value as Table 2)
Method: (§1) TfR and C1s binding using surface plasmon resonance (SPR): Analysis of antibody binding to TfR was performed on a Biacore™ T200 instrument using anti-His capture at 25° C. Anti-His (Qiagen) was buffer exchanged into PBS pH 7.2, diluted to 25 μg/mL in 10 mM sodium acetate pH 4.0 and directly immobilized to a series S CM5 chip to a surface density of ˜10,000 RU using the amine coupling kit provided by Cytiva. His-tagged recombinant human TfR (produced in-house) was diluted in HBS-EP+ pH 7.4 running buffer (10 mM HEPES pH 7.4, 150 mM NaCl, 3 mM EDTA, 0.05% surfactant P20) and injected for 5 sec at 20 μL/min flowrate to obtain capture level of 20 RU. Antibodies were serially diluted 2-fold from 90 to 5.625 nM in running buffer and injected over the captured TfR for 3 min followed by 9 min dissociation in buffer at 30 μL/min. Each cycle was regenerated with 10 mM glycine pH 1.5. To measure C1s binding, anti-human Fc (Jackson) was directly immobilized to a CM5 chip using amine chemistry. Antibodies were diluted to 2.5 μg/mL in HBS-EP+ pH 7.4 and captured to the chip for 15 sec at 20 μL/min flowrate. Human active C1s (Complement Technology) was serially diluted 2-fold from 20 to 0.625 nM in running buffer and injected over the captured antibodies for 180 sec at 50 μL/min followed by 9 min dissociation in buffer. The bound complex was removed from the chip each cycle with 40 mM HCl and 0.85% phosphoric acid. Sensorgrams were processed using the Biacore™ Insight software and fit to a 1:1 binding model to obtain kinetic constants.
(§2) The six bispecific anti-aC1s/anti-TfR antibodies were first tested for their affinity for both TfR and aC1s via surface plasmon resonance (SPR) (Table 2).

[10] = target: T1, Human active C1s (Complement Technology); assay: SPR Biacore T200, antibody captured on anti-human Fc, human active C1s as analyte, 1:1 fit
Method: as §1, §2

[11] = target: T3, His-tagged recombinant human TfR …; assay: SPR Biacore T200, His-tagged human TfR captured on anti-His, antibody as analyte, 25 C, 1:1 fit
Method: as §1, §2

[12] = target: T3, His-tagged recombinant human TfR …; assay: SPR Biacore T200 (Table 2)
Method: as §1, with “The bound complex was removed from the chip each cycle with 40 mM HCl and 0.85% phosphoric acid. Sensorgrams were processed using the Biacore™ Insight software and fit to a 1:1 binding model to obtain kinetic constants.” left out

Binder | IC50, C3d deposition on neurons in iPSC tri-cultures with 3% serum [1] [µg/mL] | IC50, Wieslab Complement Pathway Assay [2] [µg/mL] | IC90, Wieslab Complement Pathway Assay [2] [µg/mL] | Kd [3] [nM] | Kd [4] [nM] | Kd [5] [nM] | Kd [6] [nM] | IC50, Wieslab Complement Pathway Assay (classical pathway, 1% NHS) [7] [µg/mL] | IC50, C3d deposition on neurons in iPSC tricultures with serum [8] [µg/mL] | Kd [9] [nM] | Kd [10] [nM] | koff [10] [s⁻¹] | kon [10] [M⁻¹ s⁻¹] | Kd [11] [nM] | koff [11] [s⁻¹] | kon [11] [M⁻¹ s⁻¹] | fold higher affinity than the 531v25 and 531v25.v6 variants [12] [fold]
B1 | 23.5 | 1.08 | 7.6 | 28.6 | 3.31 | 43.7 | 0.248 |  |  |  |  |  |  |  |  |  | 
B2 |  |  |  |  |  |  |  | 1.63 | 29.3 | 22.6 | 0.75 | 0.00246 | 3.31e+06 | 22.6 | 0.00413 | 183000 | 
B3 |  |  |  |  |  |  |  | 1.79 | 7.48 | 18.9 | 0.76 | 0.00273 | 3.59e+06 | 18.9 | 0.00304 | 161000 | 
B4 |  |  |  |  |  |  |  | 1.67 | 13.9 |  | 0.66 | 0.00275 | 4.18e+06 | 10.3 | 0.00197 | 192000 | ~2
B5 |  |  |  |  |  |  |  | 1.67 | 16.2 | 9.65 | 0.79 | 0.00245 | 3.14e+06 | 9.65 | 0.00183 | 189000 | ~2
